Among the data in article PMC4771870 are stoichiometry N values, retold here.

The test deals with mMBP-fused VERL-Fb (fragment of vitelline envelope receptor for lysin). The experiment in a line: crystal structure; crystals of the mMBP-VERL-Fb fusion, space group P2(1), 2.9 Å, molecular replacement with MBP; refinement ongoing.

mMBP-fused VERL-Fb (fragment of vitelline envelope receptor for lysin), sequence (Q8WR62 25-3722): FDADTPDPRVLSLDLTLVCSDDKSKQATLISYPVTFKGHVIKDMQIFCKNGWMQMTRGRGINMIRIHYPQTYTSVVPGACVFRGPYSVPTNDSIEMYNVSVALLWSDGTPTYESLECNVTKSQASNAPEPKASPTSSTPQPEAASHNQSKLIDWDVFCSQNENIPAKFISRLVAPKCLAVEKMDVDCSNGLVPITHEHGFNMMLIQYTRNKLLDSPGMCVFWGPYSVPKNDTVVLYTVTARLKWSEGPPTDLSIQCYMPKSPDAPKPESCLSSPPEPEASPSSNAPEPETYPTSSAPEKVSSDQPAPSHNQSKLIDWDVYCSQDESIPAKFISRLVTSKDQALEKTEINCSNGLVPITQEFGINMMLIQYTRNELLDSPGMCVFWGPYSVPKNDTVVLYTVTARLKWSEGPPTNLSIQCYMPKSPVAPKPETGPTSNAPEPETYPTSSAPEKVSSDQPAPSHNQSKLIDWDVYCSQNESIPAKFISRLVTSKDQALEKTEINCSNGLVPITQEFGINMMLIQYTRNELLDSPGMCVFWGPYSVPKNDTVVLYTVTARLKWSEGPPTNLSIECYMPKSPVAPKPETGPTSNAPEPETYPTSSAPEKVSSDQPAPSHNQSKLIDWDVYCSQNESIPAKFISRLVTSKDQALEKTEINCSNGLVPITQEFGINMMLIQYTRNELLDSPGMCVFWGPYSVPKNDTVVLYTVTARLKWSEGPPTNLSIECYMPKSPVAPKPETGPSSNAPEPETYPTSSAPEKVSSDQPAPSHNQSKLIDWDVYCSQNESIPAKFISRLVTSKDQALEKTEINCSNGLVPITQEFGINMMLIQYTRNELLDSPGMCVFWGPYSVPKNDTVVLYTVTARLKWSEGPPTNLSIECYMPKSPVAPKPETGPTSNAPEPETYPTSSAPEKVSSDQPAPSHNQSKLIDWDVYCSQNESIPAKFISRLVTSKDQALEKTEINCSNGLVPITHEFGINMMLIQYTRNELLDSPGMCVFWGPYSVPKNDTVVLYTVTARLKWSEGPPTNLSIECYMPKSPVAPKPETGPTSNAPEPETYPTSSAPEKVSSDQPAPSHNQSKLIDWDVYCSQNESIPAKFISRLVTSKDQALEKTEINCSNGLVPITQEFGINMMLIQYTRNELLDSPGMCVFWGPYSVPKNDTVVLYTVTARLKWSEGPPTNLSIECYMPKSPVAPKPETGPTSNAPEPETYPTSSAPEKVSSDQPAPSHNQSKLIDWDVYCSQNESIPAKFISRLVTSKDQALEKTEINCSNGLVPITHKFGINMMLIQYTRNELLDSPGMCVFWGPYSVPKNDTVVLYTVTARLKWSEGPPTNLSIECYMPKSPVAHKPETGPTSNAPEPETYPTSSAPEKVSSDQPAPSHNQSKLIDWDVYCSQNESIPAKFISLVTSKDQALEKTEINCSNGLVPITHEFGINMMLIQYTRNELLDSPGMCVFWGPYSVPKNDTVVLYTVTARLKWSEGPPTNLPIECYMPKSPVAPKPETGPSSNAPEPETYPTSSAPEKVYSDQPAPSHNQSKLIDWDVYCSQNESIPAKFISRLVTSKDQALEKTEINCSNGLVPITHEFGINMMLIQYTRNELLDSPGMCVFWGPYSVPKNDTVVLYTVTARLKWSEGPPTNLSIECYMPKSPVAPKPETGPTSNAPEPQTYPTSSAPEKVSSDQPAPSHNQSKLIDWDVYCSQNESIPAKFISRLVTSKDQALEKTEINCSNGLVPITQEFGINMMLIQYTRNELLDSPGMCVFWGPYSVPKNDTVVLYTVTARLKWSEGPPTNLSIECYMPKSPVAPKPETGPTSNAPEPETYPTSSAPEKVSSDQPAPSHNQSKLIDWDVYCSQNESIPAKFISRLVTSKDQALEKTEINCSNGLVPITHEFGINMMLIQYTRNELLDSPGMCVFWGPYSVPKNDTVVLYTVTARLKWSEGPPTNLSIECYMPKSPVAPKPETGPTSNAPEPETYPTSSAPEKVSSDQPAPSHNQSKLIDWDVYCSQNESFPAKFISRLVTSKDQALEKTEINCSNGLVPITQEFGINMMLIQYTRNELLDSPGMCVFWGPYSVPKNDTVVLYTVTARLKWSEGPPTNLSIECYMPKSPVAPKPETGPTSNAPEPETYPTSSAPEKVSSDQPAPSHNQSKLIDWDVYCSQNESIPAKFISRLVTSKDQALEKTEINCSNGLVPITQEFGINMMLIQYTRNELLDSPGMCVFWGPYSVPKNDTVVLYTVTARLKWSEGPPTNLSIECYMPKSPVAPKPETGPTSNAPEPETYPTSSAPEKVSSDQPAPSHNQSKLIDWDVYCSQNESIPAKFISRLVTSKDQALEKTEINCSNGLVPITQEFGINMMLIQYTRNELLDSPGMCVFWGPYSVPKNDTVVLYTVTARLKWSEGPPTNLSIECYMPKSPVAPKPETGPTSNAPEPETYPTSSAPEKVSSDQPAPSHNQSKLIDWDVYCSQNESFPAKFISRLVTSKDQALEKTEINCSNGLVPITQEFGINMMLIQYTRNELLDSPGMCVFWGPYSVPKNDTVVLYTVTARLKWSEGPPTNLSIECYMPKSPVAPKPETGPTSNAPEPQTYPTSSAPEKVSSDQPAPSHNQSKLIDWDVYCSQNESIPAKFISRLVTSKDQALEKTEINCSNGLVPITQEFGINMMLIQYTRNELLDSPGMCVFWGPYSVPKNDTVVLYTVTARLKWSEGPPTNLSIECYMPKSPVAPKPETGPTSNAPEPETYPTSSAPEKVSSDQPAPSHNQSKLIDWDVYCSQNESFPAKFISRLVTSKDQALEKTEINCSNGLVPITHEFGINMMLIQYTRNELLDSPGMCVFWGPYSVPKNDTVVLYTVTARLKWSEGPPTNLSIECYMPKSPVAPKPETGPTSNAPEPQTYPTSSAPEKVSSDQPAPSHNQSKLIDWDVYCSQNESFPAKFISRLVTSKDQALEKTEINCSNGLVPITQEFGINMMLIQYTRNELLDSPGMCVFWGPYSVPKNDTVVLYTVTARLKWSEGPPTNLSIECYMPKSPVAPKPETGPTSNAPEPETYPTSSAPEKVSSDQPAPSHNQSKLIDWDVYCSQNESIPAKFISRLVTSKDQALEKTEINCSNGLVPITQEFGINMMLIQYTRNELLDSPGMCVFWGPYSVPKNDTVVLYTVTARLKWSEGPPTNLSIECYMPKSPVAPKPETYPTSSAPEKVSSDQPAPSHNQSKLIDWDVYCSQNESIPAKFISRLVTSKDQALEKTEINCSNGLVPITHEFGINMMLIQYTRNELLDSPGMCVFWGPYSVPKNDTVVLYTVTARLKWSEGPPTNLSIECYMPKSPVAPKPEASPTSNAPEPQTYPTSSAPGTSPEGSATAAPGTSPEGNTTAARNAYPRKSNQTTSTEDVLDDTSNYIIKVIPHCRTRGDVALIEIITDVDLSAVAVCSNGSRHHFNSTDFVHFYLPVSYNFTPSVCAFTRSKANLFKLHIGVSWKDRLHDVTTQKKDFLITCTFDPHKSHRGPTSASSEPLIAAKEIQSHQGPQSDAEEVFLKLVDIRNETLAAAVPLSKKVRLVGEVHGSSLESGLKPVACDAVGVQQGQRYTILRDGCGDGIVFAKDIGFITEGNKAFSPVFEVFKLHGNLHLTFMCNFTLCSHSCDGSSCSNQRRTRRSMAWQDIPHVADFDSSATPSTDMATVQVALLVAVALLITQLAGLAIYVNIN

On to “mMBP-fused VERL-Fb (fragment of vitelline envelope receptor for lysin) (domain or fragment)”, for which the stoichiometry N (in general, the number of molecules, sites or subunits per partner or assembly) stood at 2.
